We go through 1 molecule from US20220112286A1.

A value given as a limit tells only on which side of the number the result lay.

The target of assay [1] is human antigen (TRBV9 family beta-chain of the human T cell receptor), immobilized on AR2G sensors (human). Kind of assay: BLI, OctetRed 96, antigen immobilized on AR2G sensors, antibody in solution, 1:1 global model. (BLI is a label-free optical method that tracks binding on a fibre tip over time.)
In assay [2] the target is membrane TCR belonging to the TRBV9 family on human peripheral blood T lymphocytes (human). Kind of assay: flow cytometry sorting of donor T lymphocytes with FITC-labelled MA-043 (100 ng/ml), then sequencing of TCR beta chains of the sorted cells. In general terms: A flow cytometer gives signals particle by particle.
Sequence of membrane TCR belonging to the TRBV9 family on human peripheral blood T lymphocytes (human) (A0A0B4J1U6 22-114): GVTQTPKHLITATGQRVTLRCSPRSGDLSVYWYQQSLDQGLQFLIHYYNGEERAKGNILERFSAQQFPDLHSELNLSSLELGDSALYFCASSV

B1: monoclonal antibody MA-043 (antibody, V domains shown)
VH: QVQLVQSGPELKKPGESVKVSCKASGYTFTDYLVHWVRQAPGKGLEWMGWINTYTGTPTYADDFEGRFVFSLDTSASTANLQICSLKNEDTATYYCARSWRRGLRGIGFDYWGQGTLVTVSS
VL: DIQMTQSPYSLSASVGDRVTITCKASKSINKYLAWFQQKPGKPNKLLIYDGSTLQSGVPSRFSGSGSGTDFTLTISSLEPEDFATYYCQQHNEYPPTFGQGTKLEIKR
For B1, in assay [1], the Kd was less than 1 pM, the koff is less than 1e-07 s⁻¹ and the kon turned out to be 329000 M⁻¹ s⁻¹. The molecule also displayed an enrichment of the sorted library with sequences encoded by the TRBV9 gene segment in assay [2] of 91%.

As a reminder, the Kd is a measure of binding affinity in units of concentration. A low value points to tighter binding. In general, koff refers to the first-order rate constant of dissociation. High values mean a short-lived complex, low ones a long-lived complex. Broadly, the kon is the rate constant with which the complex forms. Low values mean slow association, high ones fast association.
